Here are results for one substance from article doi:10.1101/2025.06.24.661325.

The target in the experiment is M. tuberculosis MmpL5 Δ494-688 with C-terminal GFP-FLAG tag (M. tuberculosis) (UniProt P9WJV1). Put plainly: cryo-EM structure.

Turning to “M. tuberculosis MmpL5 Δ494-688 with C-terminal GFP-FLAG tag (from UniProt P9WJV1 1-964) (natural protein)”, the stoichiometry N was found to be 3.
